# Several values for one entry are separate records, joined by “and”; a condition that tells them apart may be missing. Equal values may be shown once.
# Columns and labels:
# [1] = biological target: recombinant untagged rat RBPMS-A ΔC20 (rat); experiment: SEC
# [2] = biological target: recombinant untagged rat RBPMS-A ΔC20 (rat); experiment: AUC
# [3] = biological target: recombinant untagged rat RBPMS-A ΔC20 (rat); experiment: AUC; remark: listed apart in the source
# [4] = biological target: recombinant untagged rat RBPMS-A ΔC20 (rat); experiment: cross-linking
substance,measurement,setting,value
recombinant untagged rat RBPMS-A ΔC20 (domain or fragment),stoichiometry N,[1],2
same,stoichiometry N,[2],2 and 3
same,stoichiometry N,[3],2
same,stoichiometry N,[4],3 and 4
